Data taken from publication PMC2674315 (Biochemistry, 2008).
Values belong to the molecule of their own block, whether it stands above or below them.

B1: Sam domain of the EphA2 receptor (domain or fragment, human, UniProt P29317 901-976, looked up)
chain: SEGVPFRTVSEWLESIKMQQYTEHFMAAGYTAIEKVVQMTNDDIKRIGVRLPGHQKRIAYSLLGLKDQVNTVGIPI
B2: Sam domain of Ship2 (Src homology 2 domain-containing phosphoinositide-5-phosphatase 2) (domain or fragment, human, UniProt O15357 1194-1258, looked up)
chain: SGLGEAGMSAWLRAIGLERYEEGLVHNGWDDLEFLSDITEEDLEEAGVQDPAHKRLLLDTLQLSK

Assays:
[1] = target: Arap3-Sam Sam (Homo sapiens) (UniProt Q8WWN8); assay: ITC; conditions: cited from earlier work
[2] = target: Sam domain of Ship2 (Src homology 2 domain-containing phosphoinositide-5-phosphatase 2) (human) (UniProt O15357); assay: AUC
[3] = target: B2; assay: ITC
[4] = target: T1, EphA2-Sam double mutant (H924N, R950A) (human, UniProt P29317 901-976, H924N | R950A); assay: ITC
T1 sequence (looked up): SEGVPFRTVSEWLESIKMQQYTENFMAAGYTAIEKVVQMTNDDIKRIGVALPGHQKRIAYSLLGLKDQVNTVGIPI

[5] = target: B1; assay: ITC
[6] = target: T2, Sam domain of the EphA2 receptor, polyHis-tag cut with thrombin (human, UniProt P29317 901-976); assay: ITC
T2 sequence (looked up): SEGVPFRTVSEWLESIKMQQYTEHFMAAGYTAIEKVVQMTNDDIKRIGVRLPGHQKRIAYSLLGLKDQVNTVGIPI

Chain of Arap3-Sam Sam (Homo sapiens) (Q8WWN8 1-71): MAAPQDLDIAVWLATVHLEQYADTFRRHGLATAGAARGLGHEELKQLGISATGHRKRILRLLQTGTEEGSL

Molecule: Ship2-Sam Sam (from UniProt O15357)
Kd [1]: 0.1 µM

Kd [2]: 2000 µM
Molecule: Sam domain of Ship2 (Src homology 2 domain-containing phosphoinositide-5-phosphatase 2) (from UniProt O15357 1194-1258) (domain or fragment)

Molecule: B1
stoichiometry N [3]: 1

Molecule: B2
Kd [4]: 1.8 ± 0.6 µM | Kd [5]: 0.75 ± 0.12 µM

Kd [6]: 19 ± 3 µM
B3: Shiptide (minimal peptide region of Ship2-Sam) (peptide)
peptide: Ac-EGLVHNGWDDLEFLSDITEEDL-NH2
